# Reference: paper PMC5356841 (Oncotarget, 2016)
# B1: DX2400 Fab (Fab, V domains shown)
# VH: EVQLLESGGGLVQPGGSLRLSCAASGFTFSLYSMNWVRQAPGKGLEWVSSIYSSGGSTLYADSVKGRFTISRDNSKNTLYLQMNSLRAEDTAVYYCARGRAFDIWGQGTMVTVSS
# VL: DIQMTQSPSSLSASVGDRVTITCRASQSVGTYLNWYQQKPGKAPKLLIYATSNLRSGVPSRFSGSGSGTDFTLTISSLQPEDFATYYCQQSYSIPRFTFGPGTKVDIK
# notes: VH CDR-H3; Only CDR-H3 is printed; also called DX2400 Fab fragment; source: cloning, expression and isolation reported earlier [66]
# B2: 3A2 Fab (Fab, V domains shown)
# VH: EVQLVESGGGLVQPGGSLRLSCAASGFNLSSSSMHWVRQAPGKGLEWVASIYPSYSYTYYADSVKGRFTISADTSKNTAYLQMNSLRAEDTAVYYCARVKLQKDKSHQWIRNLVATPYGRYVMDYWGQGTLVTVSS
# VL: DIQMTQSPSSLSASVGDRVTITCRASQSVSSAVAWYQQKPGKAPKLLIYSASSLYSGVPSRFSGSRSGTDFTLTISSLQPEDFATYYCQQYGYPITFGQGTKVEIK
# notes: numbers count on the anti-TDRD3 Fab; From a synthetic human Fab library with 23-27 residue long CDR-H3; selection is described in an accompanying manuscript (submitted); also called 3A2 antibody; 3A2 Fab antibody; source: E. coli, purified from cell lysates (purity >95%)
# B3: 2B5 Fab (Fab, V domains shown)
# VH: EVQLVESGGGLVQPGGSLRLSCAASGFNLSYSSMHWVRQAPGKGLEWVASIYPYSGYTYYADSVKGRFTISADTSKNTAYLQMNSLRAEDTAVYYCARIGVNAWAVKMSQRMLATRGSGWYVMDYWGQGTLVTVSS
# VL: DIQMTQSPSSLSASVGDRVTITCRASQSVSSAVAWYQQKPGKAPKLLIYSASSLYSGVPSRFSGSRSGTDFTLTISSLQPEDFATYYCQQSSSYPYSPITFGQGTKVEIK
# notes: VH CDR-H3; Only CDR-H3 is printed; Same synthetic human Fab library as 3A2 (accompanying manuscript, submitted); source: E. coli, purified from cell lysates (purity >95%)
# B4: 3E9 Fab (Fab, V domains shown)
# VH: EVQLVESGGGLVQPGGSLRLSCAASGFNLYYSSMHWVRQAPGKGLEWVASIYPSYGSTYYADSVKGRFTISADTSKNTAYLQMNSLRAEDTAVYYCARNGRYPGFLKRAHKRLLNFKAYVMDYWGQGTLVTVSS
# VL: DIQMTQSPSSLSASVGDRVTITCRASQSVSSAVAWYQQKPGKAPKLLIYSASSLYSGVPSRFSGSRSGTDFTLTISSLQPEDFATYYCQQGSWYLITFGQGTKVEIK
# Legend:
# [1] = target: T1, individual catalytic domain of human MT1-MMP (MT1-CAT) (human, UniProt P50281, biotin (EZ-Link sulfo-NHS-LC-biotin, 1:20 enzyme-biotin molar ratio) in the Fab binding ELISA only; unlabelled in the competition ELISA and the cleavage assays); assay: cell-based or functional assay
# [2] = target: T1, individual catalytic domain of human …; assay: ELISA; biotin-labelled MT1-CAT (25 nM) captured on streptavidin-coated wells; Fab 0-8,000 nM in TBS/T-0.5% gelatin, 1 h, ambient temperature; detected with HRP-conjugated goat anti-human Fab; Kd = Fab concentration that bound 50% of MT1-MMP; conditions: both partners purified
Binder,"IC50 of inhibition of MT1-CAT (5 nM) cleavage of the Mca-PLGL-Dpa-AR-NH2 peptide (1 uM); Fab 0-5,000 nM [1]",Kd [2],binding result [2]
B1,8.5 nM,2 nM,–
B2,18 nM,8 nM,–
B3,–,–,binds
B4,> 5000 nM,–,–
